Results on 32 substances are retold here after patent publication US20140336126A1.

Chain of GS-TAP-tagged Optn (human) (Q96CV9 whole entry E322K): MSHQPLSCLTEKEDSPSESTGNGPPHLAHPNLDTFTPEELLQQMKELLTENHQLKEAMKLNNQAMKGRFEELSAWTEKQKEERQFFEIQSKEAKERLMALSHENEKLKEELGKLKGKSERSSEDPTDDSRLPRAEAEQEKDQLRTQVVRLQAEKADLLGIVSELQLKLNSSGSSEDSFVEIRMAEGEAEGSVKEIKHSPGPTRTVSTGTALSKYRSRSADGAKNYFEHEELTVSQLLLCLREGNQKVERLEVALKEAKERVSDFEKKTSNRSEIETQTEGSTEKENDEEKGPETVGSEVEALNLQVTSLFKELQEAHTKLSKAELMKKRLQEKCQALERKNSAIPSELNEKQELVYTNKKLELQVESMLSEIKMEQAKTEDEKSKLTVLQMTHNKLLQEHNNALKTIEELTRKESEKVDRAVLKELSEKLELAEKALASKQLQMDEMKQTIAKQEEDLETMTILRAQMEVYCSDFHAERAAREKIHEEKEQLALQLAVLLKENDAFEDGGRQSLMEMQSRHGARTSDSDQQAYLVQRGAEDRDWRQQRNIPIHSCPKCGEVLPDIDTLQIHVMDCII
Chain of [..] LIGHT CHAIN 2, [..]. (Q96FJ2 whole entry): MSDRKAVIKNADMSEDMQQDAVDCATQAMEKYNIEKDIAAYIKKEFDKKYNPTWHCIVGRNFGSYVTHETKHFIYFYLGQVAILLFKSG
Chain of MYOSIN, LIGHT CHAIN 6, ALKALI, SMOOTH MUSCLE AND NON-MUSCLE ISOFORM 1. (P60660 2-151): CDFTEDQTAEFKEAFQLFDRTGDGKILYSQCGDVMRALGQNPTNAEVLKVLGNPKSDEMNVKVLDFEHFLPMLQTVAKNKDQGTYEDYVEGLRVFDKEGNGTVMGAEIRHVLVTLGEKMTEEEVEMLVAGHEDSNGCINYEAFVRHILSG

This assay concerns the target GS-TAP-tagged Optn (human) (UniProt Q96CV9). In words: TAP of GS-tagged Optn from HEK-293 cells, LC-MSMS.
“GUANINE NUCLEOTIDE-BINDING PROTEIN G. (from UniProt P08754 2-354)” registered a sequence coverage of 0.19 and a unique peptide counts of 6.

Substance CORONIN-1C. (from UniProt Q9ULV4 1-474) yielded a sequence coverage of 0.25 and a unique peptide counts of 13.

In turn, “GUANINE NUCLEOTIDE-BINDING PROTEIN G(I)/G(S)/G(T) SUBUNIT BETA 2. (from UniProt P62879 2-340)” yielded a sequence coverage of 0.06 and a unique peptide counts of 2.

Substance “MYOSIN, LIGHT CHAIN 6, ALKALI, SMOOTH MUSCLE AND NON-MUSCLE ISOFORM 1.” gave a sequence coverage of 0.28 and a unique peptide counts of 5.

With “GALPHAI2 PROTEIN. (from UniProt P04899 2-355)”, the sequence coverage stood at 0.15 and the unique peptide counts stood at 5.

Substance “ISOFORM 2 OF ANKYCORBIN. (from UniProt Q9P0K7 1-983)” displayed a sequence coverage of 0.12 and a unique peptide counts of 11.

Substance “ISOFORM 1 OF MYOSIN PHOSPHATASE RHO-… PROTEIN. (from UniProt Q6WCQ1 2-1025)” displayed a sequence coverage of 0.21 and a unique peptide counts of 17.

The substance MYOSIN-9. (from UniProt P35579 2-1960) had a sequence coverage of 0.06 and a unique peptide counts of 10.

Turning to “ISOFORM 1 OF MYOSIN IB. (from UniProt O43795 1-1136)”, the sequence coverage stood at 0.03 and the unique peptide counts came to 3.

Turning to “MYOSIN REGULATORY LIGHT CHAIN. (from UniProt O14950 2-172)”, the sequence coverage is 0.19 and the unique peptide counts came to 3.

For “HEAT SHOCK 70 KDA PROTEIN 1L. (from UniProt P34931 1-641)”, the sequence coverage came out at 0.12 and the unique peptide counts turned out to be 7.

The substance “STRESS-70 PROTEIN, MITOCHONDRIAL PRECURSOR. (from UniProt P38646 47-679)” showed a sequence coverage of 0.09 and a unique peptide counts of 5.

In the case of “HEAT SHOCK 70 KDA PROTEIN 6. (from UniProt P17066 1-643)”, the sequence coverage came out at 0.12 and the unique peptide counts turned out to be 8.

“PRKC APOPTOSIS WT1 REGULATOR PROTEIN. (from UniProt Q96IZ0 1-340)”: the sequence coverage is 0.09 and the unique peptide counts turned out to be 2.

For “PEROX1REDOXIN-1. (from UniProt Q06830 2-199) (enzyme)”, the sequence coverage turned out to be 0.11 and the unique peptide counts was determined as 2.

The substance “[..] LIGHT CHAIN 2, [..]. (from UniProt Q96FJ2 1-89)” had a sequence coverage of 0.64 and a unique peptide counts of 5.

For “ISOFORM 1 OF HEAT SHOCK COGNATE 71 KDA PROTEIN. (from UniProt P11142 2-646)”, the sequence coverage amounted to 0.24 and the unique peptide counts turned out to be 14.

Consider “RAS-RELATED PROTEIN RAB-35. (from UniProt Q15286 1-201)”, for which the sequence coverage stood at 0.16 and the unique peptide counts came out at 3.

“COMPLEMENT COMPONENT 1 Q SUBCOMPONENT-BINDING PROTEIN, MITOCHONDRIAL PRECURSOR. (from UniProt Q07021 74-282)” displayed a sequence coverage of 0.22 and a unique peptide counts of 5.

The substance “ELONGATION FACTOR 1-ALPHA 2. (from UniProt Q05639 2-463)” displayed a sequence coverage of 0.06 and a unique peptide counts of 3.

As to “ISOFORM SNAP-23A OF SYNAPTOSOMAL-ASSOCIATED PROTEIN 23. (from UniProt O00161 1-211)”, the sequence coverage was 0.11 and the unique peptide counts turned out to be 2.

FILAMIN 1. (from UniProt P21333 2-2647) returned a sequence coverage of 0.05 and a unique peptide counts of 10.

For the substance “285 KDA PROTEIN. (from UniProt Q13813 1-2472)”, the sequence coverage was found to be 0.03 and the unique peptide counts stood at 7.

As to “ISOFORM LONG OF SPECTRIN BETA CHAIN, BRAIN 1. (from UniProt Q01082 2-2364)”, the sequence coverage stood at 0.01 and the unique peptide counts came out at 2.

“ALPHA-ACTININ-4. (from UniProt O43707 1-911)” returned a sequence coverage of 0.02 and a unique peptide counts of 2.

As for “DYNEIN LIGHT CHAIN 1, CYTOPLASMIC. (from UniProt P63167 1-89)”, the sequence coverage stood at 0.64 and the unique peptide counts stood at 5.

As for “TROPOMYOSIN 4. (from UniProt P67936 2-248)”, the sequence coverage stood at 0.18 and the unique peptide counts was 6.

On to “type 1 protein phosphatase catalytic subunit PP1β (from UniProt P62140 1-327) (enzyme)”, for which the sequence coverage was 0.2 and the unique peptide counts came to 6.

“HEAT SHOCK 70 KDA PROTEIN 1. (from UniProt P0DMV9 2-641)” showed a sequence coverage of 0.25 and a unique peptide counts of 17.

“ISOFORM 1 OF MYOSIN-10. (from UniProt P35580 1-1976)” had a sequence coverage of 0.04 and a unique peptide counts of 7.

In turn, “TROPOMYOSIN 1 ALPHA CHAIN ISOFORM 7. (from UniProt P09493 1-284)” showed a sequence coverage of 0.19 and a unique peptide counts of 5.

In the case of “DESMOGLEIN 2 PREPROPROTEIN. (from UniProt Q14126 50-1118)”, the sequence coverage was 0.02 and the unique peptide counts was determined as 2.
